Target: GST-sPol_PR_(D25N) (Glutathione S-Transferase tagged HIV-1 Pol polyprotein with a catalytically dead protease) (HIV-1)
Assay: AlphaScreen or HTRF; titration: GST-sPol_PR_(D25N) constant at 20 nM, WT or D366N Flag-LEDGF/p75 titrated from 50 nM downward (1:2.5 series); glutathione donor and anti-Flag acceptor beads; 25 mM Tris/HCl pH 7.5, 150 mM NaCl, 1 mM DTT, 1 mM MgCl2, 0.1% BSA, 0.1% Tween 20; 1 h at 4°C, then 1 h at 23°C with beads; apparent

**Q.** Which Kd does the source give for “Flag-LEDGF/p75 WT (lens epithelium-derived growth factor p75) (from UniProt O75475 1-530) (natural protein)” here?
**A.** 3.1 nM

Source: article PMC4357141
